From the supplement of paper PMC9112550, “Optimization of the antimicrobial peptide Bac7 by deep mutational scanning” (BMC Biology, 2022)

Test system: Escherichia coli TOP10
Test: shrunken log2 fold change of peptide-encoding DNA abundance (4.5 h post-induction vs induction); higher = less antimicrobial activity (less host growth inhibition)
Conditions: time post-induction: 4.5 h; library: site-saturation at positions 5, 18, 19, 20
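Further: peptides expressed intracellularly from a pBAD plasmid library in pooled LB shake-flask culture, induced with 0.3% L-arabinose, DNA abundance read by NGS, three biological replicates, DESeq2 with apeglm shrinkage.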

Sequence	shrunken log2 fold change
RRIRDRPPRLPRPRPRPLIPPRP	-0.516
RRIRDRPPRLPRPRPRPLISPRP	0.116
RRIRDRPPRLPRPRPRPLLMPRP	0.359
RRIRDRPPRLPRPRPRPLMHPRP	0.164
RRIRDRPPRLPRPRPRPLPDPRP	0.701
RRIRDRPPRLPRPRPRPLRSPRP	0.294
RRIRDRPPRLPRPRPRPLRVPRP	0.679
RRIRDRPPRLPRPRPRPLSYPRP	0.194
RRIRDRPPRLPRPRPRPLTTPRP	0.135
RRIRDRPPRLPRPRPRPLTWPRP	0.24
RRIRDRPPRLPRPRPRPLVCPRP	0.22
RRIRDRPPRLPRPRPRPLVRPRP	0.223
RRIRDRPPRLPRPRPRPLVSPRP	0.469
RRIRDRPPRLPRPRPRPLWGPRP	0.294
RRIRDRPPRLPRPRPRPLWLPRP	0.399
RRIRDRPPRLPRPRPRPLYCPRP	-0.333
RRIRDRPPRLPRPRPRPLYFPRP	-0.601
RRIRDRPPRLPRPRPRPLYMPRP	0.383
RRIRDRPPRLPRPRPRPLYVPRP	-0.17
RRIRDRPPRLPRPRPRPMFDPRP	0.894
RRIRDRPPRLPRPRPRPMFIPRP	-0.0363
RRIRDRPPRLPRPRPRPMHKPRP	0.0101
RRIRDRPPRLPRPRPRPMIDPRP	0.141
RRIRDRPPRLPRPRPRPMIFPRP	0.0749
RRIRDRPPRLPRPRPRPMIGPRP	0.266

Sequence	shrunken log2 fold change
RRIRDRPPRLPRPRPRPMIIPRP	0.248
RRIRDRPPRLPRPRPRPMKCPRP	-0.00962
RRIRDRPPRLPRPRPRPMKWPRP	0.139
RRIRDRPPRLPRPRPRPMMGPRP	0.0397
RRIRDRPPRLPRPRPRPMNNPRP	-0.424
RRIRDRPPRLPRPRPRPMNSPRP	-0.0173
RRIRDRPPRLPRPRPRPMPDPRP	-0.00281
RRIRDRPPRLPRPRPRPMPFPRP	0.00571
RRIRDRPPRLPRPRPRPMQKPRP	0.0229
RRIRDRPPRLPRPRPRPMTRPRP	-0.113
RRIRDRPPRLPRPRPRPMVNPRP	-0.0813
RRIRDRPPRLPRPRPRPMWDPRP	0.00712
RRIRDRPPRLPRPRPRPMWPPRP	0.316
RRIRDRPPRLPRPRPRPNADPRP	0.018
RRIRDRPPRLPRPRPRPNAWPRP	-0.0496
RRIRDRPPRLPRPRPRPNDEPRP	0.418
RRIRDRPPRLPRPRPRPNETPRP	-0.023
RRIRDRPPRLPRPRPRPNFLPRP	-0.277
RRIRDRPPRLPRPRPRPNGWPRP	0.612
RRIRDRPPRLPRPRPRPNKEPRP	0.0313
RRIRDRPPRLPRPRPRPNKNPRP	-0.343
RRIRDRPPRLPRPRPRPNKTPRP	-0.132
RRIRDRPPRLPRPRPRPNKYPRP	-0.828
RRIRDRPPRLPRPRPRPNLQPRP	-0.71
RRIRDRPPRLPRPRPRPNLTPRP	-0.325

Sequence	shrunken log2 fold change
RRIRDRPPRLPRPRPRPNLVPRP	-0.0615
RRIRDRPPRLPRPRPRPNNCPRP	-0.466
RRIRDRPPRLPRPRPRPNNWPRP	-0.11
RRIRDRPPRLPRPRPRPNPDPRP	-0.0924
RRIRDRPPRLPRPRPRPNPKPRP	0.165
RRIRDRPPRLPRPRPRPNRYPRP	-0.0973
RRIRDRPPRLPRPRPRPNSQPRP	-0.283
RRIRDRPPRLPRPRPRPNSRPRP	-0.0447
RRIRDRPPRLPRPRPRPNSSPRP	-0.675
RRIRDRPPRLPRPRPRPNTLPRP	-0.269
RRIRDRPPRLPRPRPRPNVDPRP	0.0276
RRIRDRPPRLPRPRPRPNVKPRP	-0.631
RRIRDRPPRLPRPRPRPNVMPRP	-0.323
RRIRDRPPRLPRPRPRPNVNPRP	-0.166
RRIRDRPPRLPRPRPRPNVPPRP	0.0123
RRIRDRPPRLPRPRPRPNVRPRP	-0.275
RRIRDRPPRLPRPRPRPNYKPRP	-0.241
RRIRDRPPRLPRPRPRPNYNPRP	-0.865
RRIRDRPPRLPRPRPRPPAIPRP	0.00372
RRIRDRPPRLPRPRPRPPCCPRP	-0.124
RRIRDRPPRLPRPRPRPPDSPRP	0.0832
RRIRDRPPRLPRPRPRPPERPRP	0.0665
RRIRDRPPRLPRPRPRPPGHPRP	0.0994
RRIRDRPPRLPRPRPRPPHMPRP	1.51
RRIRDRPPRLPRPRPRPPHPPRP	0.235
